Source: paper doi:10.1101/2022.03.25.485857

Biological target: human α-thrombin (human)
Assay: enzyme inhibition

Row | Substance | Ki [nM]
1 | chimadanin sulfated at both Tyr28 and Tyr31 (natural protein) | 0.1
2 | chimadanin with a single sTyr at Tyr28 (natural protein) | 0.6
3 | chimadanin with a single sTyr at Tyr31 (natural protein) | 1.5
4 | madanin-1 sulfated at both Tyr32 and Tyr35 (natural protein) | 0.5
5 | madanin-1 with a single sTyr at Tyr32 (natural protein) | 1.3

The remaining substances from weak to strong by Ki, led by results:

Row | Ki [nM] | Substance
6 | 16 | wildtype madanin-1 (natural protein)
7 | 12.9 | wildtype chimadanin (natural protein)
8 | 6.1 | madanin-1 with a single sTyr at Tyr35 (natural protein)
